Measurements taken from publication PMC8393326 (2021).

T1: ERBB4 (Homo sapiens)
T1 chain: HRNTVV

T2: HTLV1 Tax (Human T-cell leukemia virus 1)
T2 chain: FRETEV

T3: Erbin PDZ binder
T3 chain: TGWETWV

B1: PSD95-PDZ2 155-249 (protein)
chain: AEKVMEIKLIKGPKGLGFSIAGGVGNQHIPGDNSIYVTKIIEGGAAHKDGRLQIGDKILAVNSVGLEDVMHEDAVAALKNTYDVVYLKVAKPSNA
B2: Erbin-PDZ PDZ (protein)
chain: AKQEIRVRVEKDPELGFSISGGVGGRGNPFRPDDDGIFVTRVQPEGPASKLLQPGDKIIQANGYSFINIEHGQAVSLLKTFQNTVELIIVREVSS
B3: PSD95-PDZ3 302-415 (protein)
chain: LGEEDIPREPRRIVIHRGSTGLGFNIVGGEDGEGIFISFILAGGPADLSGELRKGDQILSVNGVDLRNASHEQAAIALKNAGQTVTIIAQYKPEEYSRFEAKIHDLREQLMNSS

Legend:
Experiment in all cases: ITC
[1] = biological target: HTLV3 Tax (Human T-cell leukemia virus 3)
[2] = biological target: AdV E4 ORF1 (Human adenovirus)
[3] = biological target: T1, ERBB4
[4] = biological target: T2, HTLV1 Tax
[5] = biological target: T3, Erbin PDZ binder

Binder | Kd [1] | Kd [2] | Kd [3] | Kd [4] | Kd [5]
B1 | 20 µM | 11.5 µM | 13.9 µM | 1.5 µM | 5.7 µM
B2 | 23 µM |  |  | 7.8 µM | 0.24 µM
B3 | 43 µM |  | 41.6 µM | 3.8 µM | 
